Data from patent US20240424057A1 (CASE WESTERN RESERVE UNIVERSITY, published 2024).

Assays:
[1] = molecular target: T1, PTPRD extracellular domain, His-tagged (Acro Biosystems, PTD-H52H9) (Homo sapiens (Human), UniProt P23468 21-1265); assay: SPR (Biacore T200), PTPRD amine-coupled on CM5 chip, asprosin injected, steady-state analysis
T1 construct: only the extracellular domain stood in the assay; also called rPTPRD; rPTPRD-LBD; not shown: His tag (labelled with the His-Tag Labeling Kit RED-tris-NTA)
T1 sequence: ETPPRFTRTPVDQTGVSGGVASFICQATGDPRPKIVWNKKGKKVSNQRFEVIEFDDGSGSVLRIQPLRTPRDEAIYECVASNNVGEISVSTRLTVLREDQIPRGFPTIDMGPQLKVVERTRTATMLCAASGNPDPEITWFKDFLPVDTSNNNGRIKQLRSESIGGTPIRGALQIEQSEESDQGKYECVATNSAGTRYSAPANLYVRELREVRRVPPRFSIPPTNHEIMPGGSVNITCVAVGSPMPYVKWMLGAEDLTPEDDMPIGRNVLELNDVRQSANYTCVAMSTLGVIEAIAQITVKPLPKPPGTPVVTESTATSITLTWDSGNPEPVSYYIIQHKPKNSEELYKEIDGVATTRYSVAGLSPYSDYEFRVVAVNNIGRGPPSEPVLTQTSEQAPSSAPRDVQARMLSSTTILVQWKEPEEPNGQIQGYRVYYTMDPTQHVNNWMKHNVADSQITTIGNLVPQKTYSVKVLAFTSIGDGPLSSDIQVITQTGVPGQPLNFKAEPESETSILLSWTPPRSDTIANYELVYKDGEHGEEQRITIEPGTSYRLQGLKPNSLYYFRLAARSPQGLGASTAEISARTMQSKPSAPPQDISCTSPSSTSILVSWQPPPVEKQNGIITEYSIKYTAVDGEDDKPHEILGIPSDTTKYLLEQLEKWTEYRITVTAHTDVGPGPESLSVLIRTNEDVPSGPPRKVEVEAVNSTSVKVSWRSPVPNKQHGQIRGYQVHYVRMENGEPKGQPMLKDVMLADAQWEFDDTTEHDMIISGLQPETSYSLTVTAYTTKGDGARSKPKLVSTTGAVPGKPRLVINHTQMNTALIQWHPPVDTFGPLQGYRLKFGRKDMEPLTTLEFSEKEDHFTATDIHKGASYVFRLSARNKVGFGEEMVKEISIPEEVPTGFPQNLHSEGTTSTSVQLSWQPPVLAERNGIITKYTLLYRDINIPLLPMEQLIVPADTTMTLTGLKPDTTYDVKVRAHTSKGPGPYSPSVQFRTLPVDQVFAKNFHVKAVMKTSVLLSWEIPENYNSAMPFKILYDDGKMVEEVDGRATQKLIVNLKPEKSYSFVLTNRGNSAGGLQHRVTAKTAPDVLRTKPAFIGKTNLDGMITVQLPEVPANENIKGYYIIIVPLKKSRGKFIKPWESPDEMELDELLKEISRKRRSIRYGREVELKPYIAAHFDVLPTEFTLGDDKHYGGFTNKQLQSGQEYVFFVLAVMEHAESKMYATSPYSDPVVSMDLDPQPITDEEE
Protocol: Surface plasmon resonance (SPR) studies were performed using Biacore T200 with PTPRD (Acro Biosystems, PTD-H52H9) covalently immobilized on an S series CM5 sensor chip via amine coupling. To avoid protein aggregation, […] used in SPR experiments were purified by gel filtration in a buffer containing 25 mM Tris-HCl (pH 8.0), 100 mM NaCl and 5 mM DTT, stored at 4° C., and used within 48 hr with minimum concentration process. Asprosin was injected in a series of concentrations from […] to 7.8125 nM was injected at 30 μl/min over the sensor chip at room temperature. Sensorgram traces subtracted with the reference and zero-concentration traces were analyzed using BIA Evaluation software (GE Healthcare Bio-Sciences). Nonlinear steady-state analysis was performed to compute Kd.

[2] = molecular target: T2, recombinant PTPRD-his protein, extracellular domain (Creative BioMart, PTPRD-36H) (Homo sapiens (Human), UniProt P23468 21-1265, biotinylated with EZ-Link-Sulfo-NHS-Biotin in the BLI assay); assay: bio-layer interferometry (Octet RED96), biotinylated PTPRD on SSA biosensors, asprosin 1.23-900 nM, 1:1 global fit
T2 construct: only the extracellular domain stood in the assay; Used in the co-immunoprecipitation and in BLI; also called rPTPRD-his; PTPRD-6his; not shown: 6xHis tag
T2 sequence: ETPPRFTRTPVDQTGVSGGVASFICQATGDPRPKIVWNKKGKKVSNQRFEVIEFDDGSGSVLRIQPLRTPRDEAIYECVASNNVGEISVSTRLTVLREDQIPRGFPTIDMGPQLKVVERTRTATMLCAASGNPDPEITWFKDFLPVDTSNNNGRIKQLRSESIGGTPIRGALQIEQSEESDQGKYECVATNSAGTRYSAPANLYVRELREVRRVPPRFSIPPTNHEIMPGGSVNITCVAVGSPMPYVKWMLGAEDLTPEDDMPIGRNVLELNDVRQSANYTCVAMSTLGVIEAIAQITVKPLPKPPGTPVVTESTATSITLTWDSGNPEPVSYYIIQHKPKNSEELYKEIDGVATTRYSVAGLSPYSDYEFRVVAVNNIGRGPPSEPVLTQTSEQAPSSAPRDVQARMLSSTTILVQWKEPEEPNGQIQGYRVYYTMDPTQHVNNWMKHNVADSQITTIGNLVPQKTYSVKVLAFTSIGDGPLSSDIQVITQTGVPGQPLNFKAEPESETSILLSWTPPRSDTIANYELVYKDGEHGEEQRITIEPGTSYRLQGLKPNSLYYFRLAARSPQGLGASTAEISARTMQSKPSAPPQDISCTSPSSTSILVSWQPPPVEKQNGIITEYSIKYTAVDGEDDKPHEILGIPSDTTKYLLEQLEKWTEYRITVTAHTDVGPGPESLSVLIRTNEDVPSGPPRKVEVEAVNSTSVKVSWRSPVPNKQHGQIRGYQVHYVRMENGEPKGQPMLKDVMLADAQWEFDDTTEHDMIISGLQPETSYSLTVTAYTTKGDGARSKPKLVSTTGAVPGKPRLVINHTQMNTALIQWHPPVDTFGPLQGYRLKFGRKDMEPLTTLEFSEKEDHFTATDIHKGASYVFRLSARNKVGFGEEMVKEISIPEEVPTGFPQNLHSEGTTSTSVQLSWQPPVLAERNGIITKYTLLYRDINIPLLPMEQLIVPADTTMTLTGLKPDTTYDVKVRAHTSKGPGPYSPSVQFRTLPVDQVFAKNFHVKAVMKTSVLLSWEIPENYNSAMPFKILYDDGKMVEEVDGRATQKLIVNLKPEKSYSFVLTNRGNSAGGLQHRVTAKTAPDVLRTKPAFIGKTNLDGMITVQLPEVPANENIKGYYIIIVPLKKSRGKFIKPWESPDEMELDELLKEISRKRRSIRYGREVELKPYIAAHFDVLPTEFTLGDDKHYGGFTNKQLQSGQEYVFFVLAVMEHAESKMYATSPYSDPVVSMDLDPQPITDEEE
Protocol: (§1) Binding affinity of asprosin to PTPRD was measured on Pall ForteBio's Octet RED96 system. The PTPRD protein (Creative BioMart, PTPRD-36H) was labeled with Biotin using EZ-Link-Sulfo-NHS-Biotin (ThermoFisher Scientific, 21217) and desalted by Zeba™ Spin Desalting Columns. The biotin-labeled PTPRD (20 μg/ml) was loaded on the super streptavidin (SSA) biosensors for 300 seconds. Following 20 seconds of baseline in kinetics buffer, the loaded biosensors were dipped into a series of 3-fold diluted human asprosin (1.23-900 nM) for 300 seconds to record association kinetics and then dipped into a kinetic buffer for 600 seconds to record dissociation kinetics. Kinetic buffer without asprosin was set to correct the background. For fitting of KD value, ForteBio's data analysis software was used to fit the curve by a 1:1 binding model and the global fitting method was applied.

[3] = molecular target: T1, PTPRD extracellular domain, His-tagged …; assay: microscale thermophoresis, fluorescently labelled PTPRD, unlabelled asprosin titrated
Protocol: The microscale thermophoresis (MST) assay was performed with the Monolith NT.115 from NanoTemper Technologies. PTPRD (Acro Biosystems, PTD-H52H9) was fluorescently labeled according to the manufacturer's protocol (His-Tag Labeling Kit RED-tris-NTA, NanoTemper). A solution of unlabeled asprosin was serially diluted according to the manufacturer's protocol. After labeled PTPRD and unlabeled asprosin were mixed and incubated at room temperature for 30 minutes, samples were loaded into glass capillaries (Monolith NT.115 Capillaries, NanoTemper). Measurements were carried out according to manufacturer's protocol: 40% power and 40% MST power. Assays were repeated three times and KD's were calculated using the NanoTemper analysis software.

[4] = molecular target: T2, recombinant PTPRD-his protein, …; assay: bio-layer interferometry (Octet RED96), biotin-labelled PTPRD on super streptavidin biosensors, asprosin 1.23-900 nM in solution, 1:1 global fit
Protocol: as §1

B1: recombinant human asprosin (ligand, UniProt P35555 2732-2871, looked up)
chain: STNETDASNIEDQSETEANVSLASWDVEKTAIFAFNISHVSNKVRILELLPALTTLTNHNRYLIESGNEDGFFKINQKEGISYLHFTKKKPVAGTYSLQISSTPLYKKKELNQLEDKYDKDYLSGELGDNLKMKIQVLLH
notes: domain: cleaved asprosin; Unlabelled analyte in SPR, MST and BLI, and the recombinant asprosin used in IP/MS, ELISA and slice electrophysiology; Only the BLI and ELISA methods call it human; also called rAsprosin; recombinant asprosin
In the case of B1, the Kd [1] is reported as 36.8 nM, the Kd [2] is reported as 57 nM and the Kd [3] is reported as 4.2 nM. The koff [4] was 0.000377 s⁻¹ and the kon [4] was 6610 M⁻¹ s⁻¹.
